In the DeepSol protein solubility set:

Assay: soluble on expression in E. coli; label from the status in PepcDB or PDB records

Sequence | soluble on expression in E. coli
GPLGSMSGPVPSRARVYTDVNTHRPREYWDYESHVVEWGNQDDYQLVRKLGRGKYSEVFEAINITNNEKVVVKILKPVKKKKIKREIKILENLRGGPNIITLADIVKDPVSRTPALVFEHVNNTDFKQLYQTLTDYDIRFYMYEILKALDYCHSMGIMHRDVKPHNVMIDHEHRKLRLIDWGLAEFYHPGQEYNVRVASRYFKGPELLVDYQMYDYSLDMWSLGCMLASMIFRKEPFFHGHDNYDQLVRIAKVLGTEDLYDYIDKYNIELDPRFNDILGRHSRKRWERFVHSENQHLVSPEALDFLDKLLRYDHQSRLTAREAMEHPYFYTVVKDQARMG | soluble
MAHHHHHHMLCVSVAKDGFAIVLTGLDTKRRAPPHQQRLSRNVCFHQTKAKEFVARFHQPCFLAWSHRTIGHPDALQDGARRRQEYKPSHSHPFFRCNEGAHQHMCG | soluble
MGSDKIHHHHHHMKLNLRSLEAFRETMLSGSATAAAGRMGLTQPAVSRLIAQLEQEVGFELFYRERGRLSPTPEALIIYDEIDLAFGGLERVDALARDIAAFNTGLLKIVAPPSLSESVLSTILPRFMARFPKVRIAIESRSTATARAMVANRTVDCGFVKLPLDRSDISTVTLSTSETVCVLPDTHPLTAHEVLTPELLRGEPLVLLGAGTWTRRQIDDAFRERGVRPDVRVETHTVGSACALAAGGLGVAIVNALLADNFARPGVAIRVFRPQILHEYAFMTSALAPMNRLAAAFLEEAQTFFREQAR | not soluble
MSLSEPILFVDDEQHVLNALQRVFSESGLETVFTRSPIEALELCRSKKFAVIVSDNMMPEMKGIELLTRIKEESPETVKCLLTAHADLDTALQAINSGEVFRFIVKPWRNEELYQAVSEGVARFRIWDALRQHDEGVLHSLAETIELKDHYTRGHCNRVADHALRICELLKLPSTTSREIRYGSWLHDCGKIGVPETILNSTCMLSEQEMIVVRKHPEWGANVAQQANLSPTLINIIRHHHERFDGTGYPFGLKGVSIPLEARIVAVADVFDALTTDRPYKPAMSFAKAHKLMGDMRGNHLEGRLVDMFFQTLDTEKTGSEGHHHHHH | not soluble
MDAWFEDTAMGRYVAKLEQDFFGRYLDSYRFSGMCAVQVGGPWLSLSEDVVCVPRDMSMSAENMALADVSADMLLFPHTLEGGVPSQILSEAHRILKPCGRLMLTGFNPYSLWGFSRWFDGERLPEKRFCLPLPELKRRLADVGFDIEFGKFMVYLPPVSSLGQIRFWRFMEKAGDRWWPQCAAVYGLVLVKRAAGVTPLPAWDGYLGGKALAAGAARVAD | not soluble
MGSDKIHHHHHHMKIALIIENSQAAKNAVVHEALTTVAEPLGHKVFNYGMYTAEDKASLTYVMNGLLAGILLNSGAADFVVTGCGTGMGSMLAANAMPGVFCGLVIDPTDAFLFGQINDGNAISMPYSKGFGWAAELNLQDVYRKLFDGERGLGYPRERAEIMRKNRGILRELKDASCRDMLTVLKTVDQDLLRAAIAGEKFAELFYPNCKDDAIANYLRSLDA | not soluble
MNYSLEDLPNSGKNPRVYMDIVLNNEIIGRLQIKLFRDAFPAGVENFVQLTNGKTYRVNSNGTGKYKYNRHINRTYEGCKFHNVLHNNYIVSGDIYNSNGSSAGTVYCDEPIPPVFGDYFYPHESKGLLSLVPYTDESGNRYYDSTFMITLDDIRPSNVLDELDRDQVVIGQVYGGLDVLDKINSMIKPYAGRKYPTFSIGKCGAYLDSSQAQRKRPVNVNGTKRFLNKPTRVN | soluble
MNWYELYWQRITPLHLFLWPVSQLLILFQSVRRFLYRRAILTSIHLPVPIIIIDSITTDSPVKTSLIIQIANILKAAGLRPGIISRGYPDNHRPPTRVTISSHPHLTGEKSLLLTYHLRETCPVWIGYDRIETAKALLNAHKECNVLICDDGLQDLRLQRDFEAVIVDTSVINSGNGLIMPAGPLRDSFARLKHTDAVILAGHQRRIPDITDEIRTIHTRPQKEHFFNLSWPELTADAAGLAGKRIHAIVCDPDTQNFLDNLEFLKLTVTPRVFPENHHFIATDFQSDEAEIILIPEEDAVKCLSLHDDRIWVLQQEYRVDPGLREIILKKLREKFMDPKLLDILVCPLCKGSLIYKKDRLELICKADRLAYPIRDGIPVMLEDEARKLPDEEEIKLEHHHHHH | not soluble
MGSDKIHHHHHHMKQAYIFDMDGTLFQTNRILGHALEDAFDFLRMNGRWTGKTPLAEYQTIMGVSLPEVWQTLLPGHSDEERALVDRIFQDALIRHIEQGQGALYSGAEATLQALKETGHPLYIASNGWKVYLTAIVRQYGLNRWLDGVYSIEDVASSQKSDLVAYILSEHQLTDMVVVGDRISDFQAAKVNRLPAVGCRFDFSNEAELEQADVIIDDLRELFQIDLKAVTK | not soluble
MSGDIPLHQLQPNMNSFSVTVIVLDPGIHRRTQTGTIISMKVADASGSINASIMNPEFNETFKPGDILKFRGAYTSIYQGGLTLSVGKSGECKKVGEFMMVFSETPDISMMPLPAGVMDRRNERMQSPAGRYSRPSN | not soluble
MSLAAGKHTKHSNRVRIIGGQCRGRKLSFTSADGLRPTPDSVREKLFNWLGQDLTGKTVLDLFGGSGALGIEAASRNAKRVLISDNNRQTVQTLQKNSRELGLGQVQIVFSDGIAYLKTVSEQFDVVFLDPPFAWQDWQILFDALKPCLNPRAFVYLEAGTLPNIPDWLTEYREGKSGQSTFELRVFQVAEEGHHHHHH | soluble
MSLSPAGGPDLAALAASSTSIDLPYLLAGVENENELDLYVVPSGKPVAVRAATFDSERQVYSLALDNPQRILTWTPASAPGGDEGNSTSLPLVPPGTVVYTGSSLNPVVTEQEGYPALDLLDQERLIITFPMDSGLPPILVVFKSPRYEAGTSTGHGLEHHHHHH | soluble
MSLILRRVFIAIGCVLFSPLSQANSSLGEVNIELRGNVVDFTCAVVAGDSNKSVNLGTWPTKQLHAAGDATQPVAFSLKLEGCPPGSASITFSGTPAPGTALLALADTAMAQKLAIEIRDGDQRRLPLEQASKAVDIDNNGNATLKFYANYIALADGVQPGLANADATFLINYNEGGSHHHHHH | soluble
GMDYNQTVLSHLQKFWKHHDIKGFTWTLGRIVEELPDFQVFQVIPNHEDEPWVYVSSGIGQFLGQEFFIISPFETPEHIETLAMLASASMHYPDQFQLGKTVNIGRPWVEQSSFRHFLISLPYPYGQELEYMDNVRFFWLLPITQTERLFLNTHSVEELETKFDEAGIDYLDINRASTVWQAG | soluble
MLPKANRIPYAMTVHGDTRIDNYYWLRDDTRSQPEVLDYLHQENEYGRKVMTSQQALQDRILKEIIDRIPPREVSAPYVKNGYRYRYIYEPGCEYAIYQRQSALSEEWDVWETLLDANQRAAHSEFYTLGGLAITPDNTIMALAEDYLSRRQYGLRFRNLESGNWYPELLDNVAPEFVWANDSLTLYYVRKHKKTLLPYQVWRHTIGTPSSQDELVYEEKDDTFYVSLHKTTSQHYVVIHLASATTSEVLLLDAELADAEPFSFLPRRKDHEYSLDHYQHKFYLRSNRNGKNFGLYRTRVRNENAWEELIPPREHIMLEGFTLFTDWLVVEERQRGLTSLRQINRKTREVIGIAFDDPAYVTWLAYNPEPETSRLRYGYSSMTTPDTLFELDMDTGERRVLKQTEVPGFDSGCYQSEHLWITARDGVEVPVSLVYHQKYFRKGQNPLLVYGYGSYGSSIDADFSSSRLSLLDRGFVYAIVHVRGGGELGQQWYEDGKFLKKRNTFNDYLDACDALLKLGYGSPSLCYGMGGSAGGMLMGVAINERPELFHGVIAQVPFVDVLTTMLDESIPLTTGEFEEWGNPQDIEYYDYMKSYSPYDNVKAQDYPHLLVTTGLHDSQVQYWEPAKWVAKLRELKTDQRLLLLCTDMDSGHGGKSGRFKSYEGVALEFAFLIGLAQGTLHSA | not soluble
MELDLISYELDEKTKEGIEKVVEKFFTKAEPDLVLIFDKAGRILACKGMDISDTYSEFISSILSALFFASEELTSMLDKNDEMKDVFYETKNRVFLMARLEKDFLIGVISRKNLSLGSIRLFFNHLVSDLNAVLKNLKEVEKKSLKISKEELKKKLDQILGS | not soluble
KVTKLINDDPTLTHDQKVDQINKVEQAKLDAIKSVDDAQTADAINDALGKGIENINNQYQHGDGVDVRKATAKGDL | not soluble
